Laboratory results as given in article PMC10366545, “Phosphoregulation of DNA repair via the Rad51 auxiliary factor Swi5–Sfr1” (The Journal of Biological Chemistry, 2023).

B1: Rad51 (natural protein, S. pombe, UniProt P36601 1-365, looked up)
chain: MADTEVEMQVSAADTNNNENGQAQSNYEYDVNVQDEEDEAAAGPMPLQMLEGNGITASDIKKIHEAGYYTVESIAYTPKRQLLLIKGISEAKADKLLGEASKLVPMGFTTATEYHIRRSELITITTGSKQLDTLLQGGVETGSITELFGEFRTGKSQICHTLAVTCQLPIDMGGGEGKCLYIDTEGTFRPVRLLAVADRYGLNGEEVLDNVAYARAYNADHQLELLQQAANMMSESRFSLLVVDSCTALYRTDFSGRGELSARQMHLARFMRTLQRLADEFGIAVVITNQVVAQVDGISFNPDPKKPIGGNILAHSSTTRLSLRKGRGEQRICKIYDSPCLPESEAIFAINSDGVGDPKEIIAPV
notes: Rad51 recombinase, S. pombe; also called S. pombe Rad51; Rad51-ssDNA filament

Columns and labels:
[1] = target: T1, Swi5–Sfr1 complex (wildtype, hexahistidine-tagged Sfr1) (S. pombe, UniProt Q9USV1 1-299; Q9UUB7 1-85); assay: pull-down; in solution; nickel resin holds hexahistidine-tagged S5S1; 500 nM each protein; 30 mM Tris-Cl 7.5, 100 mM KCl, 5 mM MgCl2, 1 mM ATP, 0.25 mM TCEP, 5% glycerol, 0.05% Tween-20; 30 °C 15 min, then resin 1 h at 4 °C; SDS-PAGE, Coomassie; conditions: both partners purified
T1 construct: Sfr1, S. pombe; Swi5, S. pombe; Made in E. coli, so it serves as the unphosphorylated sample; also called S5S1; wildtype S5S1; source: E. coli BL21 DE3 (pRARE2), Sfr1 co-expressed with Swi5 from pET11b, purified (His-tag column, HiTrap Q, Superdex 200); not shown: His6, N-terminal, kept
T1 sequence (looked up) 1: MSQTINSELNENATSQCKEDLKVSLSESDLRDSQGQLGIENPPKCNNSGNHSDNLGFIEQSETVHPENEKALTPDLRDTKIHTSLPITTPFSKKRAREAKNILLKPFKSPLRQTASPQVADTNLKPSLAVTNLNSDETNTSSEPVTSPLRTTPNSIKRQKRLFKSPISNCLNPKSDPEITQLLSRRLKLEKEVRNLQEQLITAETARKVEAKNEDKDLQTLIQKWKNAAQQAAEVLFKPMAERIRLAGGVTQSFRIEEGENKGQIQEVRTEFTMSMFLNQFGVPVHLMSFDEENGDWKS
T1 sequence (looked up) 2: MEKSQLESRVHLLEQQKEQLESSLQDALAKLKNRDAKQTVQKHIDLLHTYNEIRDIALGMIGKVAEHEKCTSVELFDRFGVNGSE

[2] = target: T2, Swi5–Sfr1 nonphosphorylatable mutant complex (S5S1-NON) (S. pombe, UniProt Q9USV1 1-299; Q9UUB7 1-85, S24 to A | T73 to A | S109 to A | S116 to A | S165 to A); assay: as above; conditions: both partners purified
T2 construct: Sfr1, S. pombe, five S/T phosphosites (S24, T73, S109, S116, S165) mutated to A; Swi5, S. pombe; source: E. coli BL21 DE3 (pRARE2), Sfr1 co-expressed with Swi5 from pET11b, purified (His-tag column, HiTrap Q, Superdex 200); not shown: His6, N-terminal, kept
T2 sequence (looked up) 1: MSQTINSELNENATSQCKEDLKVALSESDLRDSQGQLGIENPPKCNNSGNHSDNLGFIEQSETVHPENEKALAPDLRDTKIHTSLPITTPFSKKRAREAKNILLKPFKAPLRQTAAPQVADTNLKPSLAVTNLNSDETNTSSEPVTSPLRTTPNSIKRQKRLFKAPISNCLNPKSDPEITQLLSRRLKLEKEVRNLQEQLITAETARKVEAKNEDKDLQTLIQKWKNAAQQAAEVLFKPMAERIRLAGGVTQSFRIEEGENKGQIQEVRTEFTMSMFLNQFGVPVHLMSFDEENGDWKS
T2 sequence (looked up) 2: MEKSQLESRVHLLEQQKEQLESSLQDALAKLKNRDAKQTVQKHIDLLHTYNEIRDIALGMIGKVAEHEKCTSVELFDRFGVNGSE

Rad51 [3] = target: B1; assay: pull-down; filament binding assay: Rad51 (3.33 μM) filaments on circular ssDNA (10 μMnt) held on streptavidin beads through a biotinylated oligonucleotide; 3.33 μM S5S1 added, 5 min 37 °C; 25 mM Tris-Cl 7.5, 100 mM NaCl, 3.5 mM MgCl2, 2 mM ATP, 0.5 mM TCEP, 5% glycerol, 0.05% Tween-20; Sfr1 signal normalised to Rad51, relative to wildtype, n = 3; conditions: both partners purified
[4] = target: T3, Swi5-Sfr1 (S5S1) wild type (Schizosaccharomyces pombe, UniProt Q9UUB7;Q9USV1 1-85;1-299); assay: EMSA; 3.5 mM Mg2+; EMSA: 25 mM Hepes-KOH pH 7.5, 100 mM KCl, 3.5 mM MgCl2, 0.5 mM TCEP, 5% glycerol, 20 nM DNA, 37 C 15 min, 0.8% agarose in TAE at 4 C; pull-down: 25 mM Tris-Cl pH 7.5, 100 mM NaCl, 2 mM ATP, 5 mM MgCl2, 37 C; conditions: protein: recombinant, tags: N-terminal His6 on Sfr1, copies: 1;1
T3 sequence 1: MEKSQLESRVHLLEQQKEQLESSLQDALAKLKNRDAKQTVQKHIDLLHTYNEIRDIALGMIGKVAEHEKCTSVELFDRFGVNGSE
T3 sequence 2: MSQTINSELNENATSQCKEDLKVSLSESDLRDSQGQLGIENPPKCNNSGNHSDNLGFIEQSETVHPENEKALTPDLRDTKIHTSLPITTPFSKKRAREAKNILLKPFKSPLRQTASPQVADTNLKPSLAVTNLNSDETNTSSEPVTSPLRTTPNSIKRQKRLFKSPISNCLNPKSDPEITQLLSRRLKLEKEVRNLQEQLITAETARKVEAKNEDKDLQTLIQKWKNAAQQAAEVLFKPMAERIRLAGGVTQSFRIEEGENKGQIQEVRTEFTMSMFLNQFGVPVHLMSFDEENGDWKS

Rad51 [5] = target: T4, Rad51 (Schizosaccharomyces pombe, UniProt P36601 1-365); assay: streptavidin pull-down; 2 mM ATP, 5 mM Mg2+; EMSA: 25 mM Hepes-KOH pH 7.5, 100 mM KCl, 3.5 mM MgCl2, 0.5 mM TCEP, 5% glycerol, 20 nM DNA, 37 C 15 min, 0.8% agarose in TAE at 4 C; pull-down: 25 mM Tris-Cl pH 7.5, 100 mM NaCl, 2 mM ATP, 5 mM MgCl2, 37 C; conditions: protein: recombinant; label: 5' biotin
T4 sequence: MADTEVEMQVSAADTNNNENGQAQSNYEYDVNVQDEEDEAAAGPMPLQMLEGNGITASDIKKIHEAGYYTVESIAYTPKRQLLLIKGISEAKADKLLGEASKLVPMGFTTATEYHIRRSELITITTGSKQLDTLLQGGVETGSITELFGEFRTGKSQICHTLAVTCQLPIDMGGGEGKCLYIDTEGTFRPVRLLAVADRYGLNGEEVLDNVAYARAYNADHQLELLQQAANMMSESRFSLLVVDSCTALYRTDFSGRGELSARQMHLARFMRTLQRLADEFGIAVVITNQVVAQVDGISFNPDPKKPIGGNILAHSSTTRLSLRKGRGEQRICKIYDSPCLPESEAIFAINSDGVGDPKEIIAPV

[6] = target: T5, Rad51;Swi5-Sfr1 (S5S1) wild type (Schizosaccharomyces …, UniProt P36601;Q9UUB7;Q9USV1 1-365;1-85;1-299, |); assay: streptavidin pull-down; ATP, Mg2+, Fbh1-Skp1; S5S1 antagonizes disruption; EMSA: 25 mM Hepes-KOH pH 7.5, 100 mM KCl, 3.5 mM MgCl2, 0.5 mM TCEP, 5% glycerol, 20 nM DNA, 37 C 15 min, 0.8% agarose in TAE at 4 C; pull-down: 25 mM Tris-Cl pH 7.5, 100 mM NaCl, 2 mM ATP, 5 mM MgCl2, 37 C; conditions: protein: recombinant;recombinant; tags: ;N-terminal His6 on Sfr1; label: 5' biotin
T5 sequence 1: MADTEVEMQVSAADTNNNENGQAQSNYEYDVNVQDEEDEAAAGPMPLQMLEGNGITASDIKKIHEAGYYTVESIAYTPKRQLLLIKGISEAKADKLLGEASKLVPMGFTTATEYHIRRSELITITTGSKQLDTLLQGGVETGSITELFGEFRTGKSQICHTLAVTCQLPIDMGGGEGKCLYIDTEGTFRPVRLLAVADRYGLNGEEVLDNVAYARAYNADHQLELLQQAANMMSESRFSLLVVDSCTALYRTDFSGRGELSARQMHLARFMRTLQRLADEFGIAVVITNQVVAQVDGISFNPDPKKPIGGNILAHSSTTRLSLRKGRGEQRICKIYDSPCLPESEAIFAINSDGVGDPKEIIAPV
T5 sequence 2: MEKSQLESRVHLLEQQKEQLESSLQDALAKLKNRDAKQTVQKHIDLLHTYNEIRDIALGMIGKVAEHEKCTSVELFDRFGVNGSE
T5 sequence 3: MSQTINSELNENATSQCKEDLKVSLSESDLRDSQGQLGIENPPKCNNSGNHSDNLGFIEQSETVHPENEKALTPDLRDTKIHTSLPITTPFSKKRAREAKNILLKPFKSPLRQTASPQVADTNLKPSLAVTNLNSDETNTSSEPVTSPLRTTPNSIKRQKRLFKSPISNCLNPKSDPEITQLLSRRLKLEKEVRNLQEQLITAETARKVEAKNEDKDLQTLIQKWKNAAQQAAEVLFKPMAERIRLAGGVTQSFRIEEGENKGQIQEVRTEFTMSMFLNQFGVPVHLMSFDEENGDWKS

Rad51 [7] = target: T4, Rad51; assay: negative-stain EM; 2 mM ATP, 5 mM Mg2+; EMSA: 25 mM Hepes-KOH pH 7.5, 100 mM KCl, 3.5 mM MgCl2, 0.5 mM TCEP, 5% glycerol, 20 nM DNA, 37 C 15 min, 0.8% agarose in TAE at 4 C; pull-down: 25 mM Tris-Cl pH 7.5, 100 mM NaCl, 2 mM ATP, 5 mM MgCl2, 37 C; conditions: protein: recombinant
[8] = target: T5, Rad51;Swi5-Sfr1 (S5S1) wild type; assay: negative-stain EM; 2 mM ATP, 5 mM Mg2+; longer filaments; EMSA: 25 mM Hepes-KOH pH 7.5, 100 mM KCl, 3.5 mM MgCl2, 0.5 mM TCEP, 5% glycerol, 20 nM DNA, 37 C 15 min, 0.8% agarose in TAE at 4 C; pull-down: 25 mM Tris-Cl pH 7.5, 100 mM NaCl, 2 mM ATP, 5 mM MgCl2, 37 C; conditions: protein: recombinant;recombinant; tags: ;N-terminal His6 on Sfr1

## B1
[1]
  binding result: binds
[2]
  binding result: binds

B2: Swi5–Sfr1 phosphomimetic mutant complex (S5S1-PM) (complex, S. pombe)
chain 1: MSQTINSELNENATSQCKEDLKVDLSESDLRDSQGQLGIENPPKCNNSGNHSDNLGFIEQSETVHPENEKALDPDLRDTKIHTSLPITTPFSKKRAREAKNILLKPFKDPLRQTADPQVADTNLKPSLAVTNLNSDETNTSSEPVTSPLRTTPNSIKRQKRLFKDPISNCLNPKSDPEITQLLSRRLKLEKEVRNLQEQLITAETARKVEAKNEDKDLQTLIQKWKNAAQQAAEVLFKPMAERIRLAGGVTQSFRIEEGENKGQIQEVRTEFTMSMFLNQFGVPVHLMSFDEENGDWKS
chain 2: MEKSQLESRVHLLEQQKEQLESSLQDALAKLKNRDAKQTVQKHIDLLHTYNEIRDIALGMIGKVAEHEKCTSVELFDRFGVNGSE
notes: Sfr1, S. pombe, five S/T phosphosites (S24, T73, S109, S116, S165) mutated to D; Swi5, S. pombe; source: E. coli BL21 DE3 (pRARE2), Sfr1 co-expressed with Swi5 from pET11b, purified (His-tag column, HiTrap Q, Superdex 200); not shown: His6, N-terminal, kept
Rad51 [3]
  fold reduction in coprecipitation with Rad51 filaments against wildtype S5S1: ~5 fold

B3: BA663 80-mer ssDNA (ssDNA)
DNA: TTGATAAGAGGTCATTTTTGCGGATGGCTTAGAGCTTAATTGCTGAATCTGGTGCTGTAGCTCAACATGTTTTAAATATG
[4]; label: 3' Cy5
  binding result: binds

B4: BA655 100-mer ssDNA (ssDNA)
DNA: ATAAGGCCACGTATTTTGCAAGCTATTTAACTGGCGGCGATTGCGTACCCGACGACCAAAATTAGGGTCAACGCTACCTGTAGGAAGTGTCCGCATAAAG
Rad51 [5]
  binding result: binds
[6]
  binding result: binds

B5: BA494 116-mer ssDNA (ssDNA)
DNA: TTCAATATCTGGTTGAACGGCGTCGCGTCGTAACCCAGCTTGGTAAGTTGGATTAAGCACTCCGTGGACAGATTTGTCATTGTGAGCATTTTCATCCCGAAGTTGCGGCTCATTCT
Rad51 [7]
  binding result: binds
[8]
  binding result: binds

B6: BA663/BA664 80-bp dsDNA (dsDNA)
DNA 1: TTGATAAGAGGTCATTTTTGCGGATGGCTTAGAGCTTAATTGCTGAATCTGGTGCTGTAGCTCAACATGTTTTAAATATG
DNA 2: CATATTTAAAACATGTTGAGCTACAGCACCAGATTCAGCAATTAAGCTCTAAGCCATCCGCAAAAATGACCTCTTATCAA
[4]; label: 3' Cy5 on BA663, blunt
  binding result: binds
